Assay results taken from publication PMC13065467, “Assembly and phosphoregulatory mechanisms of the budding yeast outer kinetochore KMN complex” (The Journal of Cell Biology, 2026).

Columns and labels:
[1] = tested on: K^HB-RWDM^Dsn1Δ257_Mis12-3A; test: ITC, Dsn1 peptide titrated into Mis12-3A mutant complex; assay type: binding, S. cerevisiae; conditions: ratio of ITC KD values, Mis12-3A mutant complex versus K^HB-RWDM^Dsn1Δ257
Protocol: Dsn1^228–254 and Dsn1^228–254,S240E,S250E peptides were synthesized by Alta BioScience with N-terminal acetylation and C-terminal GSAW extension and amidation. The final sequence of Dsn1^228–254 was […], and Dsn1^228–254,S240E,S250E was […]. All protein complexes and peptides used in a given experiment were dialyzed for a minimum of 16 h and/or buffer-exchanged by size-exclusion chromatography into the same batch of ITC buffer (25 mM HEPES, pH 7.5, 100 mM NaCl, 1 mM TCEP). All experiments were performed using an Auto-iTC200 instrument (Malvern Instruments) at 25°C. In each experiment, 360 μl of protein complex was pipetted into the calorimeter cell. The protein complex loaded into the calorimeter cell contained Knl1c:Mis12c^Mtw1c with Knl1^Spc105_HB-RWD and Dsn1^Δ1–257 and either wild-type Mis12^Mtw1 (K^HB-RWDM ^Dsn1Δ257) or Mis12^Mtw1_E69A,E73A,E77A mutant (K^HB-RWDM ^Dsn1Δ257_Mis12-3A). Wild-type constructs of all other Knl1c and Mis12c^Mtw1c subunits were included. Titration of either the Dsn1^228–254 or Dsn1^228-254,S240E,S250E peptide into the cell was then performed by an initial injection of 0.5 μl, followed by 19 further injections of 2.0 μl each. […] Titrations were performed in duplicate or triplicate, and reported KD and n values were calculated as an average from all replicate results.

[2] = tested on: K^HB-RWDM^Dsn1Δ257_Δhead1; test: ITC, Dsn1 peptide titrated into head 1-deleted complex; assay type: binding, S. cerevisiae; conditions: 25°C, 25 mM HEPES pH 7.5, 100 mM NaCl, 1 mM TCEP, syringe 0.3 mM, cell 0.025 mM, two experiments
[3] = biological target: Knl1c:Mis12c^Mtw1c complex K^HB-RWDM^Dsn1Δ257_Mis12-3A (K^HB-RWDM^Dsn1Δ257 containing mutant … (S. cerevisiae, UniProt P53148 445-917)); Q04431 1-385; P40568 258-576; P39731 1-289; P47149 1-201; …, E69A | E73A | E77A (construct name; the text of the results says Asp77)); test: ITC
[4] = biological target: T1, Knl1c:Mis12c^Mtw1c complex K^HB-RWDM^Dsn1Δ226-2E (Dsn1 residues 1–226 deleted, with S240E and S250E … (S. cerevisiae, UniProt P53148 445-917; Q04431 1-385; P40568 227-576; P39731 1-289; P47149 1-201; …, S240E | S250E); test: SEC; 4 μM Knl1c:Mis12c^Mtw1c complex mixed with 4 μM CENP-C^Mif2_1-63 or CENP-QU in KMN buffer, 30 min on ice; Superose 6 3.2/300 in 20 mM HEPES pH 7.5, 150 mM NaCl, 1 mM TCEP; fractions on SDS-PAGE; conditions: both partners purified
T1 construct: Knl1^Spc105_HB-RWD: Knl1^Spc105, S. cerevisiae S288c, residues 445-917; ZWINT^Kre28, S. cerevisiae S288c; no truncation stated; Dsn1^Δ1–226,S240E,S250E: Dsn1, S. cerevisiae S288c, residues 1-226 deleted, phosphomimetic mutations; Mis12^Mtw1, S. cerevisiae S288c; Nnf1, S. cerevisiae S288c; Nsl1, S. cerevisiae S288c; also called K^HB-RWDM^Dsn1Δ226,S240E,S250E; source: High-5 insect cells …

[5] = biological target: T2, Knl1c:Mis12c^Mtw1c complex K^HB-RWDM^2E (full-length Dsn1 with S240E and S250E phosphomimetic mutations) (S. cerevisiae, UniProt P53148 445-917; Q04431 1-385; P40568 1-576; P39731 1-289; P47149 1-201; Q12143 …, S240E | S250E); test: as above; conditions: both partners purified
T2 construct: Knl1^Spc105_HB-RWD: Knl1^Spc105, S. cerevisiae S288c, residues 445-917; ZWINT^Kre28, S. cerevisiae S288c; no truncation stated; Dsn1^S240E,S250E: full-length Dsn1, S. cerevisiae S288c, with phosphomimetic mutations; Mis12^Mtw1, S. cerevisiae S288c; Nnf1, S. cerevisiae S288c; Nsl1, S. cerevisiae S288c; also called KM^2E; K^HB-RWDM^S240E,S250E; source: High-5 insect cells (baculovirus), purified …

[6] = biological target: T3, Knl1c:Mis12c^Mtw1c complex K^HB-RWDM^Dsn1Δ257 (Knl1^Spc105 residues 1–444 and Dsn1 residues 1–257 deleted) (S. cerevisiae, UniProt P53148 445-917; Q04431 1-385; P40568 258-576; P39731 1-289; P47149 1-201; …); test: as above; conditions: both partners purified
T3 construct: Knl1^Spc105_HB-RWD: Knl1^Spc105, S. cerevisiae S288c, residues 445-917; ZWINT^Kre28, S. cerevisiae S288c; no truncation stated; Mis12^Mtw1, S. cerevisiae S288c; wild-type, no truncation stated; Nnf1, S. cerevisiae S288c; Nsl1, S. cerevisiae S288c; source: High-5 insect cells (two baculoviruses), purified (Strep-Tactin, SEC); copies: + + + + +

K^HB-RWDM = test: analytical SEC reconstitution with K^HB-RWDM; assay type: binding, S. cerevisiae; conditions: Superose 6 3.2/300, 4 μM each, 20 mM HEPES pH 7.5, 150 mM NaCl, 1 mM TCEP, 30 min on ice
Protocol: (§1) To test the effect of deleting or mutating regions of the Dsn1 N-terminal disordered domain on Mis12c^Mtw1c auto-inhibition, 4 μM concentrations of Knl1c:Mis12c^Mtw1c complexes containing Knl1^Spc105_HB-RWD and different Dsn1 constructs were mixed with 4 μM concentrations of either CENP-C^Mif2_1-63 or CENP-QU in KMN buffer. Knl1c:Mis12c^Mtw1c complexes used contained one of the following Dsn1 constructs: K^HB-RWDM, contained full-length and wild-type Dsn1; K^HB-RWDM^S240E,S250E, contained Dsn1^S240E,250E; K^HB-RWDM^Dsn1Δ226, contained Dsn1^Δ1–226; K^HB-RWDM^Dsn1Δ257, contained Dsn1^Δ1–257; K^HB-RWDM^Dsn1Δ226,S240E,S250E, contained Dsn1^Δ1–226,S240E,S250E. Protein mixtures were incubated together on ice for 30 min to attempt to reconstitute a protein complex. 100 μl of individual proteins or protein complexes or reconstitution mixtures was loaded onto a Superose 6 3.2/300 size-exclusion chromatography column (Cytiva) equilibrated in (20 mM HEPES, pH 7.5, 150 mM NaCl, 1 mM TCEP), and 100 μl eluate fractions were collected. Aliquots of each indicated eluate fraction were mixed 1:1 (volume/volume) with 2xLDS-PAGE loading buffer supplied by Thermo Fisher Scientific, supplemented with DTT, boiled for 3 min at 95°C, and analyzed by SDS-PAGE.

KM2E = test: SPR, binding to KM2E (review history, removed from manuscript); parameters: species or system S. cerevisiae; conditions: data removed from manuscript, review history only
K^HB-RWDM^Dsn1Δ226 = test: analytical SEC reconstitution with K^HB-RWDM^Dsn1Δ226; assay type: binding, S. cerevisiae; conditions: Superose 6 3.2/300, 4 μM each, pH 7.5, Dsn1 residues 1–226 deleted
Protocol: as §1

K^HB-RWDM^Dsn1Δ257 = test: analytical SEC reconstitution with K^HB-RWDM^Dsn1Δ257; assay type: binding, S. cerevisiae; conditions: Superose 6 3.2/300, 4 μM each, pH 7.5, Dsn1 residues 1–257 deleted
Protocol: as §1

K^HB-RWDM^2E = test: analytical SEC reconstitution with K^HB-RWDM^2E; assay type: binding, S. cerevisiae; conditions: Superose 6 3.2/300, 4 μM each, pH 7.5, full-length Dsn1 S240E,S250E
Protocol: as §1

K^HB-RWDM^Dsn1Δ226-2E = test: analytical SEC reconstitution with K^HB-RWDM^Dsn1Δ226-2E; assay type: binding, S. cerevisiae; conditions: Superose 6 3.2/300, 4 μM each, pH 7.5, Dsn1 Δ1–226,S240E,S250E
Protocol: as §1

Molecule: Ac-PHYIQRTRERKKSIGSQRGRRLSMLASGSAW-NH2 [Dsn1^228-254]
- increase of KD versus K^HB-RWDM^Dsn1Δ257 [1]: threefold
- binding (ITC) [2]: did not bind

Molecule: Ac-PHYIQRTRERKKSIGSQRGRRLSMLASGSAW-NH2 [Dsn1^228–254 peptide]
- Kd [3]: 4060 nM

B1: CENP-C^Mif2 residues 1–63 (CENP-C^Mif2_1–63) (domain or fragment, S. cerevisiae, UniProt P35201 1-63, looked up)
chain: MDYMKLGLKSRKTGIDVKQDIPKDEYSMENIDDFFKDDETSLISMRRKSRRKSSLFLPSTLNG
notes: CENP-C^Mif2, S. cerevisiae S288c, residues 1-63; source: E. coli BL-21 CodonPlus-RIL, purified (HisTrap, Ulp1 cleavage, reverse IMAC, Resource S, SEC); not shown: 6xHis-SUMO, N-terminal, cleaved
- binding result [4]: binds
- binding result [5]: binds
- binding result [6]: binds

B2: CENP-C^Mif2_1-63: recombinant N-terminal fragment of S. cerevisiae CENP-C^Mif2 comprising residues 1–63 (protein)
chain: B1 chain
modifications: left off: 6xHis-SUMO, N-terminal, cleaved
- binding by SEC (K^HB-RWDM; full-length wild-type Dsn1): did not bind
- binding by SEC (K^HB-RWDM; full-length wild-type Dsn1, listed as CENP-C N-terminus (residues 1-63)): did not
- Kd (KM2E): 260 nM
- binding by SEC (K^HB-RWDM^Dsn1Δ226): did not bind
- binding by SEC (K^HB-RWDM^Dsn1Δ257): did interact
- binding by SEC (K^HB-RWDM^2E): sufficient to abolish Mis12c^Mtw1c auto-inhibition
- binding by SEC (K^HB-RWDM^2E; listed as CENP-C (residues 1-63)): bound KM2E
- binding by SEC (K^HB-RWDM^Dsn1Δ226-2E): sufficient to abolish Mis12c^Mtw1c auto-inhibition
